This passage reports Tpm/Tmod ratio, stoichiometry N (Tpm1.1 per Tmod1) and decrease of the sliding velocity of thin filaments containing Tpm1.1 over sheep ventricular myosin results from article PMC12109978.

For assay [1], the target named is human tropomodulin 4 (Tmod4) (human) (UniProt Q9NZQ9). The assay can be described thus: pull-down; His-tagged Tmod4 (6 µM) incubated 20 min with 3 to 24 µM Tpm in 30 mM HEPES-Na, 200 mM NaCl, pH 7.3, then captured on IMAC Ni-charged resin, eluted with 500 mM imidazole; SDS-PAGE, densitometry.
UniProt Q9NZQ9, sequence (Q9NZQ9 whole entry): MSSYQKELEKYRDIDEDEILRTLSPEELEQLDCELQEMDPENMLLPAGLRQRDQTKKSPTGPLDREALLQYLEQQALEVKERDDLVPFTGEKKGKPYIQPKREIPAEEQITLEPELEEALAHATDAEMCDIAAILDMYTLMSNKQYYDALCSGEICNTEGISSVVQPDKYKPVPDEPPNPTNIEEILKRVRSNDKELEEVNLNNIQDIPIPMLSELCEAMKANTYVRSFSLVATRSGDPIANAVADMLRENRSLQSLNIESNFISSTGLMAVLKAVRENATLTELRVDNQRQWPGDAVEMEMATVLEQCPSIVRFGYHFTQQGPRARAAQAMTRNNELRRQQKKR
The target of assay [2] is human tropomodulin 1 (Tmod1) (human) (UniProt P28289). The assay can be described thus: SEC; Superose 6 Increase 10/300 GL, 50 mM HEPES-Na pH 7.3, 150 mM NaCl, 1 mM DTT, 0.5 mL/min, 280 nm; 30 µM Tpm and Tmod1, or 26 µM Tpm and 13 µM Tmod4; single proteins and mixtures.
For assay [3], the target named is human tropomyosin Tpm1.1 with Ala-Ser N-terminal extension (human).

In the case of “human tropomyosin Tpm1.1 with Ala-Ser N-terminal extension (natural protein)”, the Tpm/Tmod ratio at which saturation is reached (Tpm/Tmod ratio) in assay [1] turned out to be 3. Besides, the stoichiometry N (Tpm1.1 per Tmod1) in assay [2] is 2.
Take “human tropomyosin Tpm1.2 with Ala-Ser N-terminal extension (natural protein)”: the Tpm/Tmod ratio at which saturation is reached (Tpm/Tmod ratio) in assay [1] was 2.5.

B1: human tropomodulin 1 (Tmod1) (natural protein)
chain: MSYRRELEKYRDLDEDEILGALTEEELRTLENELDELDPDNALLPAGLRQKDQTTKAPTGPFKREELLDHLEKQAKEFKDREDLVPYTGEKRGKVWVPKQKPLDPVLESVTLEPELEEALANASDAELCDIAAILGMHTLMSNQQYYQALSSSSIMNKEGLNSVIKPTQYKPVPDEEPNSTDVEETLERIKNNDPKLEEVNLNNIRNIPIPTLKAYAEALKENSYVKKFSIVGTRSNDPVAYALAEMLKENKVLKTLNVESNFISGAGILRLVEALPYNTSLVEMKIDNQSQPLGNKVEMEIVSMLEKNATLLKFGYHFTQQGPRLRASNAMMNNNDLVRKRRLADLTGPIIPKCRSGV
As to B1, in assay [3], the decrease of the sliding velocity of thin filaments containing Tpm1.1 over sheep ventricular myosin at pCa 5.2 by 500 nM Tmod1 was determined as 30%.
